This test deals with BAFF-R Liama IgG2b Fc Tag recombinant protein (Acro, Cat. No.: BAR-H5258) (UniProt Q96RJ3). In words: flow cytometry; control T cells expressing only EGFRt incubated with BAFF-R llama IgG2b Fc protein at 10 ug/mL, detected with FITC-anti llama IgG. In general terms: Flow cytometry measures light scatter and fluorescence of single cells or particles in a stream.
Sequence of UniProt Q96RJ3 (Q96RJ3 7-71): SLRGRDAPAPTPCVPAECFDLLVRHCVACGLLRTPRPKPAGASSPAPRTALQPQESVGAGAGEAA

In the case of “EGFRt (from UniProt P00533 334-668) (receptor)”, the positive rate turned out to be 0.65%.
